# Measured values: the RNAGym collection of RNA variant scans (doi:10.7554/elife.80360)
# B1: HDV Ribozyme (parent)
# chain: GGCCGGCAUGGUCCCAGCCUCCUCGCUGGCGCCGGCUGGGCAACAUUCCGAGGGGACCGUCCCCUCGGUAAUGGCGAAUGGGACCCA
# Variants of: B1
# Test: self-cleavage, relative activity (ratio to wild type); higher = more cleavage; co-transcriptional
row,Variant,self-cleavage
1,GGCCGGCAUGGUCCCAGCCUCCUGGCUGGCGCCGGCUGGGCAACAUUCCGAGGGGACCGUCCCCUCGGUGAUGGCGAAUGGGACCCA,0.0594
2,GGCCGGCAUGGUCCCAGCCUCCUGGCUGGCGCCGGCUGGGCAACAUUCCGAGGGGACCGUCCGCUCGGUAAUGGCGAAUGGGACCCA,0.217
3,GGCCGGCAUGGUCCCAGCCUCCUAGCUGGCCCCGGCUGGGCAACAUUCCGAGGGGACCGUCCCCUCGGUAAUGGCGAAUGGGACCCA,0.0583
4,GGCCGGCAUGGUCCCAGCCUCCUGGCUGGCGCCGGCUGGGCAACAUUCCGAGGGGACCGUCCCCUCGGUAAUGGCGAUUGGGACCCA,0
5,GGCCGGCAUGGUCCCAGCCUCCUAGCUGGCGCCGGUUGGGCAACAUUCCGAGGGGACCGUCCCCUCGGUAAUGGCGAAUGGGACCCA,0.254
6,GGCCGGCAUGGUCCCAGCCUCCUAGCUGGCGCCGGGUGGGCAACAUUCCGAGGGGACCGUCCCCUCGGUAAUGGCGAAUGGGACCCA,0.0678
7,GGCCGGCAUGGUCCCAGCCUCCUAGCUGGCGCCGGCUGGGCAACAUUCCGAGGGGACCAUCCCCUCGGUAAUGGCGAAUGGGACCCA,0.842
8,GGCCGGCAUGGUCCCAGCCUCCUAGCUGGCGCCGGCUGGGCAACAUUCCGAGGGGACCGUCCCCUCGGUAAUGGCGAAUGUGACCCA,0.185
9,GGCCGGCAUGGUCCCAGCCUCCUGGCUGGCGCCGGCUGGGCAACAUUCCGAGGGGACCGUCCCAUCGGUAAUGGCGAAUGGGACCCA,0.117
10,GGCCGGCAUGGUCCCAGCCUCCUAGCUGGCGCCGGCUGGGCAACAUUCCGAGGGGACCGUACCCUCGGUAAUGGCGAAUGGGACCCA,0.906
11,GGCCGGCAUGGUCCCAGCCUCCUGGCUGGCGCCGGCUGGGCUACAUUCCGAGGGGACCGUCCCCUCGGUAAUGGCGAAUGGGACCCA,0
12,GGCCGGCAUGGUCCCAGCCUCCUGGCUGGCGCCGGCUGGGCGACAUUCCGAGGGGACCGUCCCCUCGGUAAUGGCGAAUGGGACCCA,0.185
13,GGCCGGCAUGGUCCCAGCCUCCUAGCUGGCGCCGGCUGGGCAACAUUCCGAGGGGACCGUCCCCUCGGUAUUGGCGAAUGGGACCCA,0.731
14,GGCCGGCAUGGUCCCAGCCUCCUAGCUGGCGCCGGCUGGGCAACAUUCCGAGGGGACCGUCCCCUCGGUACUGGCGAAUGGGACCCA,0.38
15,GGCCGGCAUGGUCCCAGCCUCCUAGCUGGCGCCGGCUGGGCAACAUUCCGAGGGGACCGUCCCCUCGGUAGUGGCGAAUGGGACCCA,0.61
16,GGCCGGCAUGGUCCCAGCCUCCUAGCUGGCGCCGGCUGGGCAACAUUCCGAGGGGAGCGUCCCCUCGGUAAUGGCGAAUGGGACCCA,0.869
17,GGCCGGCAUGGUCCCAGCCUCCUGGCUGGCGCCGGCUGGGCAACAUUCCGAGGGGAUCGUCCCCUCGGUAAUGGCGAAUGGGACCCA,0.14
18,GGCCGGCAUGGUCCCAGCCUCCUGGAUGGCGCCGGCUGGGCAACAUUCCGAGGGGACCGUCCCCUCGGUAAUGGCGAAUGGGACCCA,0.886
19,GGCCGGCAUGGUCCCAGCCUCCUAGCUCGCGCCGGCUGGGCAACAUUCCGAGGGGACCGUCCCCUCGGUAAUGGCGAAUGGGACCCA,0.0773
20,GGCCGGCAUGGUCCCAGCCUCCUAGCCGGCGCCGGCUGGGCAACAUUCCGAGGGGACCGUCCCCUCGGUAAUGGCGAAUGGGACCCA,0.0791
21,GGCCGGCAUGGUCCCAGCCUCCUAGCAGGCGCCGGCUGGGCAACAUUCCGAGGGGACCGUCCCCUCGGUAAUGGCGAAUGGGACCCA,0.639
22,GGCCGGCAUGGUCCCAGCCUCCUGGCUGGCGCCGGCUGGGCAACAUUCCGAGGGGACCGUGCCCUCGGUAAUGGCGAAUGGGACCCA,0.0264

row,Variant,self-cleavage
1,GGCCGGCAUGGUCCCAGCCUCCUGGCUGGCGCCGGCUGGGCAACAUUCCGAGGGGACCGUACCCUCGGUAAUGGCGAAUGGGACCCA,0.112
2,GGCCGGCAUGGUCCCAGCCUCCUAGCUGGCGCCGGCUGGGCAACAUUCCGAGGGAACCGUCCCCUCGGUAAUGGCGAAUGGGACCCA,0.684
3,GGCCGGCAUGGUCCCAGCCUCCUGGCUGGCGCCGGCUGGGCAACUUUCCGAGGGGACCGUCCCCUCGGUAAUGGCGAAUGGGACCCA,0.0504
4,GGCCGGCAUGGUCCCAGCCUCCUAGCUGGCGCCGGCUGGGCAACAUUCCGAGGGGACCGUCCCCUCGGUAAUGCCGAAUGGGACCCA,0.0326
5,GGCCGGCAUGGUCCCAGCCUCCUGGCUGGGGCCGGCUGGGCAACAUUCCGAGGGGACCGUCCCCUCGGUAAUGGCGAAUGGGACCCA,0.0875
6,GGCCGGCAUGGUCCCAGCCUCCUGGCUGGCGCCGGCUGGGCAACAUUCCGAGGGGACCGUCCCCUCGGUAAUGGCGAAUGGGACCCA,0.13
7,GGCCGGCAUGGUCCCAGCCUCCUAGCUGGCGCCGGCUGGGCCACAUUCCGAGGGGACCGUCCCCUCGGUAAUGGCGAAUGGGACCCA,0.0639
8,GGCCGGCAUGGUCCCAGCCUCCUAGCUGGCGCCAGCUGGGCAACAUUCCGAGGGGACCGUCCCCUCGGUAAUGGCGAAUGGGACCCA,0.166
9,GGCCGGCAUGGUCCCAGCCUCCUAGCUGGCGCCCGCUGGGCAACAUUCCGAGGGGACCGUCCCCUCGGUAAUGGCGAAUGGGACCCA,0.0852
10,GGCCGGCAUGGUCCCAGCCUCCUAGCUGGCGACGGCUGGGCAACAUUCCGAGGGGACCGUCCCCUCGGUAAUGGCGAAUGGGACCCA,0.106
11,GGCCGGCAUGGUCCCAGCCUCCUGGCUGGCGCCGGCUGGGCAAAAUUCCGAGGGGACCGUCCCCUCGGUAAUGGCGAAUGGGACCCA,0.0297
12,GGCCGGCAUGGUCCCAGCCUCCUGGCUGGCGCCGGCUGGGCAAUAUUCCGAGGGGACCGUCCCCUCGGUAAUGGCGAAUGGGACCCA,0.0978
13,GGCCGGCAUGGUCCCAGCCUCCUAGCUGGCGCCGGCUGGGCAACAUUCCGAGGGGACCGUCCCCUCGGUAAUGGCGACUGGGACCCA,0.133
14,GGCCGGCAUGGUCCCAGCCUCCUAGCUGGCGCCGCCUGGGCAACAUUCCGAGGGGACCGUCCCCUCGGUAAUGGCGAAUGGGACCCA,0.0692
15,GGCCGGCAUGGUCCCAGCCUCCUAGCUGGAGCCGGCUGGGCAACAUUCCGAGGGGACCGUCCCCUCGGUAAUGGCGAAUGGGACCCA,0.237
16,GGCCGGCAUGGUCCCAGCCUCCUAGCUGGCGCCGGCUGGGCAACAUACCGAGGGGACCGUCCCCUCGGUAAUGGCGAAUGGGACCCA,0.554
17,GGCCGGCAUGGUCCCAGCCUCCUAGCUGGCGCCGGCUGUGCAACAUUCCGAGGGGACCGUCCCCUCGGUAAUGGCGAAUGGGACCCA,0.211
18,GGCCGGCAUGGUCCCAGCCUCCUAGCUGGCGCCGGCUGGGCAACAUUCCGAGGGGACCGACCCCUCGGUAAUGGCGAAUGGGACCCA,0.535
19,GGCCGGCAUGGUCCCAGCCUCCUAGCUGGCGCCGGCUGGGCAACAUUCCGAGGGGCCCGUCCCCUCGGUAAUGGCGAAUGGGACCCA,0.966
20,GGCCGGCAUGGUCCCAGCCUCCUAGCUGGCGCCGGCUGGGCAACAUUCCGAGGGGUCCGUCCCCUCGGUAAUGGCGAAUGGGACCCA,0.872
21,GGCCGGCAUGGUCCCAGCCUCCUAGCUGGCGCCGGCUGGGCAACAUUCCGAGGGGACCGUCCCCUCGGGAAUGGCGAAUGGGACCCA,0.623
22,GGCCGGCAUGGUCCCAGCCUCCUAGCUGGCGCCGGCUGGGCAACAUUCCGAGGGGACCGUCCCCUCGGCAAUGGCGAAUGGGACCCA,0.712

row,Variant,self-cleavage
1,GGCCGGCAUGGUCCCAGCCUCCUAGCUGGCGCCGGCUGGGCAACAUUCCGAGGGGACCGUCACCUCGGUAAUGGCGAAUGGGACCCA,0.946
2,GGCCGGCAUGGUCCCAGCCUCCUAGCUGGCGCCGGCUGGGCAACAUUCCGAGGGGACCGUCUCCUCGGUAAUGGCGAAUGGGACCCA,0.89
3,GGCCGGCAUGGUCCCAGCCUCCUGGCUGGCGCCGGCUGGGCAACAUUCCGAGGGGACCGUCCCCUCGGUAAUGGCGAAUGGGAACCA,0.123
4,GGCCGGCAUGGUCCCAGCCUCCUAGCUGGCGCCGGCUGGGCAACAUUCCGAGGGGACCGUCCCCUCGUUAAUGGCGAAUGGGACCCA,0.776
5,GGCCGGCAUGGUCCCAGCCUCCUAGCUGGCGCCGGCUGGGCAACAUUCCGAGGCGACCGUCCCCUCGGUAAUGGCGAAUGGGACCCA,0.741
6,GGCCGGCAUGGUCCCAGCCUCCUAGCUGGCGCCGGCUGGGCAACAUUCCGAGGAGACCGUCCCCUCGGUAAUGGCGAAUGGGACCCA,0.774
7,GGCCGGCAUGGUCCCAGCCUCCUAGCUGGCGCCGGCUGGGCAACAUUCUGAGGGGACCGUCCCCUCGGUAAUGGCGAAUGGGACCCA,0.623
8,GGCCGGCAUGGUCCCAGCCUCCUAGCUGGCGCCGGCUGGGCAACAUUCCGCGGGGACCGUCCCCUCGGUAAUGGCGAAUGGGACCCA,0.516
9,GGCCGGCAUGGUCCCAGCCUCCUAGCUGGCGCCGGCUGGGCAACAUUCCGAGGGGACCGUCCCCUCGGUGAUGGCGAAUGGGACCCA,0.804
10,GGCCGGCAUGGUCCCAGCCUCCUAGCUGGCGCCGGCUGGGCAACAUUCCGAGAGGACCGUCCCCUCGGUAAUGGCGAAUGGGACCCA,0.893
11,GGCCGGCAUGGUCCCAGCCUCCUAGCUGGCGCCGGCUGGGCAACAUUCCGAGCGGACCGUCCCCUCGGUAAUGGCGAAUGGGACCCA,0.785
12,GGCCGGCAUGGUCCCAGCCUCCUAGCUGGCGCCGGCUGGGCAAAAUUCCGAGGGGACCGUCCCCUCGGUAAUGGCGAAUGGGACCCA,0.217
13,GGCCGGCAUGGUCCCAGCCUCCUAGCUGUCGCCGGCUGGGCAACAUUCCGAGGGGACCGUCCCCUCGGUAAUGGCGAAUGGGACCCA,0.0369
14,GGCCGGCAUGGUCCCAGCCUCCUGGCUGGCGCCGGCUGGGCAACAUUCCGAGGGGACCGUCACCUCGGUAAUGGCGAAUGGGACCCA,0.0272
15,GGCCGGCAUGGUCCCAGCCUCCUAGCUGGCGCCGGCUGGGCAACAUUCCGAGGGGACCGUCCCAUCGGUAAUGGCGAAUGGGACCCA,0.803
16,GGCCGGCAUGGUCCCAGCCUCCUAGCUGGCGCCGGCUGGGGAACAUUCCGAGGGGACCGUCCCCUCGGUAAUGGCGAAUGGGACCCA,0.536
17,GGCCGGCAUGGUCCCAGCCUCCUAGCUGGCGCCGGCUGGGCAACAUUCCGAGGGGACCGUCCCCUCGGUAAUGGCGAAUGGGAGCCA,0.563
18,GGCCGGCAUGGUCCCAGCCUCCUAGCUGGCGCCGGCUGGGCAACAUUCCGAGGGGACCGUCCCCUCGGUAAUGGCGAAUUGGACCCA,0.198
19,GGCCGGCAUGGUCCCAGCCUCCUGGCUGGCGCCGGCUGGGCAACAUUGCGAGGGGACCGUCCCCUCGGUAAUGGCGAAUGGGACCCA,0.0941
20,GGCCGGCAUGGUCCCAGCCUCCUAGCUGGCGCCGGCUGGGCAACAUUCCGAGGGGACCGUCCCCUCGGUAAUGGCGAAUGGGACACA,0.591
